Reference: patent US20250327097A1, “ORGANISMS PRODUCING LESS CROTONIC ACID” (Global Bioenergies, priority 2021, published 2025)

B1: I283T-P284D-i284aP-N287P-S322T-Q385T-N388M-E421V-C430N-L432F-L434W-S436N-H461T-dG462-A463T (protein)
chain: MFLKSLREQINLLKRQGDLRIINRPVDSYLEAAAIIRRSTETKAPVPLMTNIKGYPGCSIVGGLAALSSNPEYPLSRVAMSLGLSTTASAQSIVQYLIDGLKKTPYLPVEIDSNSAPCKQNILRGEDASLAHFPIPQVHQHDGNRYVNTWGVFIVESPDGQWCNWSIQRVQYLNDRQMIALVFPSQHISDIWEEWVKIGKPMPYALVQGCEPIVPYIAGLPLLERNVNEAEYIGALYGKGIEVVKCETHDLRVPASSEVVIEGYFAITREGVEGPFGEFAGYTDNEPSLQPILSITAISWQDDPIWPVVAEGKPVDEYHTCTGIGDAAAIQNVLLTANLPVSFVWVPLYSACHLMIVSINRHWRQTHPDLTSEQLTKKVGDVIHTTRMSIKLPKIVVLDDDVDPADTESLLWALATRIHPVRKRYFYESNIFPWLNCYSEEERHNRKGKRVIIDALLPENTGTISSFDYAYPDDIKQRVLMHWETDFSHD
B2: I283T-P284D-i284aP-E286A-N287P-S322T-N388M-E421V-C430N-L432F-L434W-S436N-H461T-dG462-A463T (protein)
chain: MFLKSLREQINLLKRQGDLRIINRPVDSYLEAAAIIRRSTETKAPVPLMTNIKGYPGCSIVGGLAALSSNPEYPLSRVAMSLGLSTTASAQSIVQYLIDGLKKTPYLPVEIDSNSAPCKQNILRGEDASLAHFPIPQVHQHDGNRYVNTWGVFIVESPDGQWCNWSIQRVQYLNDRQMIALVFPSQHISDIWEEWVKIGKPMPYALVQGCEPIVPYIAGLPLLERNVNEAEYIGALYGKGIEVVKCETHDLRVPASSEVVIEGYFAITREGVEGPFGEFAGYTDNAPSLQPILSITAISWQDDPIWPVVAEGKPVDEYHTCTGIGDAAAIQNVLLTANLPVSFVWVPLYSACHLMIVSINRHWRQTHPDLTSEQLTKKVGDVIHQTRMSIKLPKIVVLDDDVDPADTESLLWALATRIHPVRKRYFYESNIFPWLNCYSEEERHNRKGKRVIIDALLPENTGTISSFDYAYPDDIKQRVLMHWETDFSHD
B3: I283T-P284D-i284aP-N287P-S322T-N388M-E421V-C430N-L432F-L434W-S436N-H461T-dG462-A463T-D468L (protein)
chain: MFLKSLREQINLLKRQGDLRIINRPVDSYLEAAAIIRRSTETKAPVPLMTNIKGYPGCSIVGGLAALSSNPEYPLSRVAMSLGLSTTASAQSIVQYLIDGLKKTPYLPVEIDSNSAPCKQNILRGEDASLAHFPIPQVHQHDGNRYVNTWGVFIVESPDGQWCNWSIQRVQYLNDRQMIALVFPSQHISDIWEEWVKIGKPMPYALVQGCEPIVPYIAGLPLLERNVNEAEYIGALYGKGIEVVKCETHDLRVPASSEVVIEGYFAITREGVEGPFGEFAGYTDNEPSLQPILSITAISWQDDPIWPVVAEGKPVDEYHTCTGIGDAAAIQNVLLTANLPVSFVWVPLYSACHLMIVSINRHWRQTHPDLTSEQLTKKVGDVIHQTRMSIKLPKIVVLDDDVDPADTESLLWALATRIHPVRKRYFYESNIFPWLNCYSEEERHNRKGKRVIIDALLPENTGTISSFLYAYPDDIKQRVLMHWETDFSHD
B4: I283T-P284D-i284aP-N287P-S322T-H384L-N388M-E421V-C430N-L432F-L434W-S436N-H461T-dG462-A463T (protein)
chain: MFLKSLREQINLLKRQGDLRIINRPVDSYLEAAAIIRRSTETKAPVPLMTNIKGYPGCSIVGGLAALSSNPEYPLSRVAMSLGLSTTASAQSIVQYLIDGLKKTPYLPVEIDSNSAPCKQNILRGEDASLAHFPIPQVHQHDGNRYVNTWGVFIVESPDGQWCNWSIQRVQYLNDRQMIALVFPSQHISDIWEEWVKIGKPMPYALVQGCEPIVPYIAGLPLLERNVNEAEYIGALYGKGIEVVKCETHDLRVPASSEVVIEGYFAITREGVEGPFGEFAGYTDNEPSLQPILSITAISWQDDPIWPVVAEGKPVDEYHTCTGIGDAAAIQNVLLTANLPVSFVWVPLYSACHLMIVSINRHWRQTHPDLTSEQLTKKVGDVILQTRMSIKLPKIVVLDDDVDPADTESLLWALATRIHPVRKRYFYESNIFPWLNCYSEEERHNRKGKRVIIDALLPENTGTISSFDYAYPDDIKQRVLMHWETDFSHD
B5: I283T-P284D-i284aP-E286S-N287P-S322T-N388M-E421V-C430N-L432F-L434W-S436N-H461T-dG462-A463T (protein)
chain: MFLKSLREQINLLKRQGDLRIINRPVDSYLEAAAIIRRSTETKAPVPLMTNIKGYPGCSIVGGLAALSSNPEYPLSRVAMSLGLSTTASAQSIVQYLIDGLKKTPYLPVEIDSNSAPCKQNILRGEDASLAHFPIPQVHQHDGNRYVNTWGVFIVESPDGQWCNWSIQRVQYLNDRQMIALVFPSQHISDIWEEWVKIGKPMPYALVQGCEPIVPYIAGLPLLERNVNEAEYIGALYGKGIEVVKCETHDLRVPASSEVVIEGYFAITREGVEGPFGEFAGYTDNSPSLQPILSITAISWQDDPIWPVVAEGKPVDEYHTCTGIGDAAAIQNVLLTANLPVSFVWVPLYSACHLMIVSINRHWRQTHPDLTSEQLTKKVGDVIHQTRMSIKLPKIVVLDDDVDPADTESLLWALATRIHPVRKRYFYESNIFPWLNCYSEEERHNRKGKRVIIDALLPENTGTISSFDYAYPDDIKQRVLMHWETDFSHD
B6: I283T-P284D-i284aP-N287P-L289R-S322T-N388M-E421V-C430N-L432F-L434W-S436N-H461T-dG462-A463T (protein)
chain: MFLKSLREQINLLKRQGDLRIINRPVDSYLEAAAIIRRSTETKAPVPLMTNIKGYPGCSIVGGLAALSSNPEYPLSRVAMSLGLSTTASAQSIVQYLIDGLKKTPYLPVEIDSNSAPCKQNILRGEDASLAHFPIPQVHQHDGNRYVNTWGVFIVESPDGQWCNWSIQRVQYLNDRQMIALVFPSQHISDIWEEWVKIGKPMPYALVQGCEPIVPYIAGLPLLERNVNEAEYIGALYGKGIEVVKCETHDLRVPASSEVVIEGYFAITREGVEGPFGEFAGYTDNEPSRQPILSITAISWQDDPIWPVVAEGKPVDEYHTCTGIGDAAAIQNVLLTANLPVSFVWVPLYSACHLMIVSINRHWRQTHPDLTSEQLTKKVGDVIHQTRMSIKLPKIVVLDDDVDPADTESLLWALATRIHPVRKRYFYESNIFPWLNCYSEEERHNRKGKRVIIDALLPENTGTISSFDYAYPDDIKQRVLMHWETDFSHD
B7: I283T-P284D-i284aP-N287P-S322T-N388M-E421V-C430N-L432F-L434W-S436N-G448V-H461T-dG462-A463T (protein)
chain: MFLKSLREQINLLKRQGDLRIINRPVDSYLEAAAIIRRSTETKAPVPLMTNIKGYPGCSIVGGLAALSSNPEYPLSRVAMSLGLSTTASAQSIVQYLIDGLKKTPYLPVEIDSNSAPCKQNILRGEDASLAHFPIPQVHQHDGNRYVNTWGVFIVESPDGQWCNWSIQRVQYLNDRQMIALVFPSQHISDIWEEWVKIGKPMPYALVQGCEPIVPYIAGLPLLERNVNEAEYIGALYGKGIEVVKCETHDLRVPASSEVVIEGYFAITREGVEGPFGEFAGYTDNEPSLQPILSITAISWQDDPIWPVVAEGKPVDEYHTCTGIGDAAAIQNVLLTANLPVSFVWVPLYSACHLMIVSINRHWRQTHPDLTSEQLTKKVGDVIHQTRMSIKLPKIVVLDDDVDPADTESLLWALATRIHPVRKRYFYESNIFPWLNCYSEEERHNRKVKRVIIDALLPENTGTISSFDYAYPDDIKQRVLMHWETDFSHD
B8: I283T-P284D-i284aP-N287P-S322T-N388M-E421V-C430N-L432F-L434W-S436N-G448E-H461T-dG462-A463T (protein)
chain: MFLKSLREQINLLKRQGDLRIINRPVDSYLEAAAIIRRSTETKAPVPLMTNIKGYPGCSIVGGLAALSSNPEYPLSRVAMSLGLSTTASAQSIVQYLIDGLKKTPYLPVEIDSNSAPCKQNILRGEDASLAHFPIPQVHQHDGNRYVNTWGVFIVESPDGQWCNWSIQRVQYLNDRQMIALVFPSQHISDIWEEWVKIGKPMPYALVQGCEPIVPYIAGLPLLERNVNEAEYIGALYGKGIEVVKCETHDLRVPASSEVVIEGYFAITREGVEGPFGEFAGYTDNEPSLQPILSITAISWQDDPIWPVVAEGKPVDEYHTCTGIGDAAAIQNVLLTANLPVSFVWVPLYSACHLMIVSINRHWRQTHPDLTSEQLTKKVGDVIHQTRMSIKLPKIVVLDDDVDPADTESLLWALATRIHPVRKRYFYESNIFPWLNCYSEEERHNRKEKRVIIDALLPENTGTISSFDYAYPDDIKQRVLMHWETDFSHD
B9: I283T-P284D-i284aP-N287P-S322T-N388M-E421V-C430N-L432F-L434W-S436N-G448C-H461T-dG462-A463T (protein)
chain: MFLKSLREQINLLKRQGDLRIINRPVDSYLEAAAIIRRSTETKAPVPLMTNIKGYPGCSIVGGLAALSSNPEYPLSRVAMSLGLSTTASAQSIVQYLIDGLKKTPYLPVEIDSNSAPCKQNILRGEDASLAHFPIPQVHQHDGNRYVNTWGVFIVESPDGQWCNWSIQRVQYLNDRQMIALVFPSQHISDIWEEWVKIGKPMPYALVQGCEPIVPYIAGLPLLERNVNEAEYIGALYGKGIEVVKCETHDLRVPASSEVVIEGYFAITREGVEGPFGEFAGYTDNEPSLQPILSITAISWQDDPIWPVVAEGKPVDEYHTCTGIGDAAAIQNVLLTANLPVSFVWVPLYSACHLMIVSINRHWRQTHPDLTSEQLTKKVGDVIHQTRMSIKLPKIVVLDDDVDPADTESLLWALATRIHPVRKRYFYESNIFPWLNCYSEEERHNRKCKRVIIDALLPENTGTISSFDYAYPDDIKQRVLMHWETDFSHD
B10: I283T-P284D-i284aP-N287P-S322T-H384G-N388M-E421V-C430N-L432F-L434W-S436N-H461T-dG462-A463T (protein)
chain: MFLKSLREQINLLKRQGDLRIINRPVDSYLEAAAIIRRSTETKAPVPLMTNIKGYPGCSIVGGLAALSSNPEYPLSRVAMSLGLSTTASAQSIVQYLIDGLKKTPYLPVEIDSNSAPCKQNILRGEDASLAHFPIPQVHQHDGNRYVNTWGVFIVESPDGQWCNWSIQRVQYLNDRQMIALVFPSQHISDIWEEWVKIGKPMPYALVQGCEPIVPYIAGLPLLERNVNEAEYIGALYGKGIEVVKCETHDLRVPASSEVVIEGYFAITREGVEGPFGEFAGYTDNEPSLQPILSITAISWQDDPIWPVVAEGKPVDEYHTCTGIGDAAAIQNVLLTANLPVSFVWVPLYSACHLMIVSINRHWRQTHPDLTSEQLTKKVGDVIGQTRMSIKLPKIVVLDDDVDPADTESLLWALATRIHPVRKRYFYESNIFPWLNCYSEEERHNRKGKRVIIDALLPENTGTISSFDYAYPDDIKQRVLMHWETDFSHD

Each molecule was assayed on 3-methylcrotonic acid.
Type: biochemical, Yersinia frederiksenii
Parameters: key: “+” representing a low increase in activity; “++++” representing a high increase in activity
In the case of B1, the “Activity relative to WT” value is reported as “++++”.
With B2 the “Activity relative to WT” value was “++++”.
B3 was tested, and the “Activity relative to WT” value was “++++”.
B4 was tested, and the “Activity relative to WT” value was “++++”.
With B5 the “Activity relative to WT” value was “++++”.
B6 was tested, and the “Activity relative to WT” value was “++++”.
In the case of B7, the “Activity relative to WT” value is reported as “++++”.
For B8, the “Activity relative to WT” value was “++++”.
B9 was tested, and the “Activity relative to WT” value was “++++”.
For B10, the “Activity relative to WT” value was “++++”.
